Reference: US6489299B2, “Methods for treatment of multiple sclerosis using peptide analogues at position 91 of human myelin basic protein” (Stanford University Medical Center, priority 1994, dated 2002)

What was measured:
[1] = test system: lymph node cells (LNC) reactive to MBP (87-99); experiment: Antigen-specific lymph node cell proliferation assay; format: cell-based, Lewis rat; conditions: 10 μM peptide, 3 days, [3H]-thymidine; FIG. 4
Method: FIG. 4 is a graph displaying the proliferative response of MBP-reactive lymph node cells to position 91-substituted analogues. Two different substitutions were tested. The proliferative response of lymph node cells to 10 μM of MBP (87-99), motilin, A91 or K91 was determined. Proliferation is shown as counts per minute. BKG, no peptide added; 87-99, MBP (87-99); motilin, an unrelated peptide; A91, peptide analogue with alanine at position 91; K91, peptide analogue with D-lysine at position 91.
As an alternative to the use of T cell lines as described above, draining lymph node cells from Lewis rats immunized with MBP (87-99) may be used. […] Cultures are harvested on fiberglass filters and counted in a scintillation counter. Mean CPM and the standard error of the mean are calculated from data determined in triplicate cultures. […]
For the assay, 100 μl of the lymph node suspension was added to 96-well flat-bottom wells in the presence of an equal volume of medium containing 10 μM of various peptides (including: motilin as a negative control; MBP87-99; medium only, or alanine or D-amino acid substituted at position 91). […] The plates were then harvested with a Matrix filtermate harvester (Packard) and counted using an Automatic Direct Beta Counter (Packard). Mean cpm and the standard error of the mean were calculated from triplicate wells.

[2] = test system: MBP specific rat T cell line (NBI); experiment: Antigen-specific T cell line proliferation assay; format: cell-based; conditions: three days, [3H]-thymidine; analogues at 20-120 μM; FIG. 3
Method: FIG. 3 is a graph displaying the proliferative response of the T cell line NBI to position 91-substituted analogues. Ten different substitutions were tested. The proliferative response of NBI in response to concentrations of analogues ranging from 0 to 150 μM was determined. Proliferation is shown as counts per minute. Standard errors of the mean were less than ±10%. MBP 87-99; peptides from human myelin basic protein containing residues 87 to 99; K, lysine; R, arginine; N, asparagine; H, histidine; L, leucine; S, serine; G, glycine; k, D-lysine; E, glutamic acid; F, phenylalanine; and A, alanine.
In the direct proliferation assay, MBP (87-99) reactive T cell lines may be used as target cells. T cell lines are established from lymph nodes taken from rats injected with MBP (87-99). […] After 5 to 6 passages in this manner, the proliferative potential of the cell lines are determined. […] Cultures are harvested and incorporated counts determined. Mean CPM and standard error of the mean are calculated from triplicate cultures. […]
For this antigen-specific proliferation assay, T cell lines as established in Example 3 were used. […] Cultures were harvested on fiberglass filters and the proliferative response expressed as CPM±SD or as stimulation index (SI) (mean CPM from test cultures divided by mean CPM from control cultures).

[3] = test system: EAE; conditions: rat, in vivo
Method: In addition, as a safety measure, but not essential to this invention, suitable peptide analogues may be tested for direct induction of EAE. As described in detail in Example 2, various amounts of peptide analogues are injected at the base of the tail of rats, and the rats examined daily for signs of EAE. A peptide analogue which is not considered to cause EAE has a mean cumulative score of less than or equal to 1 over seven days when 1 mg (5 mg/kg) in complete Freund's adjuvant is injected.
MBP peptides and analogues were dissolved in phosphate-buffered saline (PBS) and emulsified with an equal volume of incomplete Freund's adjuvant supplemented with 4 mg/ml heat-killed Mycobacterium tuberculosis H37Ra in oil (Difco Laboratories, Inc., Detroit, Mich.). Rats were immunized subcutaneously in the hind foot pads with 0.1 ml of the emulsion and were monitored for clinical signs daily by an observer blind to the treatment protocol. For intravenous injections MBP peptides and analogues were dissolved in normal saline. EAE was scored as follows: 0, clinically normal; 1, flaccid tail; 2, hind limb paralysis; 3, front and hind limb paralysis.
The ability of peptide analogues to cause EAE is assessed in vivo. Rats were injected with MBP (87-99) or (91K>A) peptide analogue as described in Example 2. Animals were monitored daily for evidence of EAE. Rats receiving MBP (87-99) had 100% incidence (18/18 rats) of EAE with a mean maximum clinical score of 2.4±0.2. In contrast, 0/12 rats receiving the peptide analogue (91k>A) had EAE.

[4] = test system: multiple sclerosis; conditions: human, in vivo; cited from earlier work

Molecule: CC[C@H](C)[C@H](NC(=O)[C@@H]1CCCN1C(=O)[C@@H](NC(=O)[C@@H](N)Cc1ccccc1)C(C)C)C(=O)N[C@@H](Cc1ccccc1)C(=O)N[C@H](C(=O)N[C@@H](Cc1ccc(O)cc1)C(=O)NCC(=O)N[C@@H](CCC(=O)O)C(=O)N[C@@H](CC(C)C)C(=O)N[C@@H](CCC(N)=O)C(=O)N[C@@H](CCCNC(=N)N)C(=O)N[C@@H](CCSC)C(=O)N[C@@H](CCC(N)=O)C(=O)N[C@@H](CCC(=O)O)C(=O)N[C@@H](CCCCN)C(=O)N[C@@H](CCC(=O)O)C(=O)N[C@@H](CCCNC(=N)N)C(=O)N[C@@H](CC(N)=O)C(=O)N[C@@H](CCCCN)C(=O)NCC(=O)N[C@@H](CCC(N)=O)C(=O)O)[C@@H](C)O [motilin, reference compound]
- proliferative response of MBP (87-99)-reactive lymph node cells (in words) [1]: failed to respond as well
- proliferation of the MBP specific rat T cell line (in words) [2]: does not stimulate proliferation at any dose

Molecule: MBP(68-88): EAE-inducing myelin basic protein peptide from a different region (KRTADPKNAWQDAHPADPGSR; UniProt P02686 68-88, looked up, fragment) [reference compound]
- EAE Incidence [3]: 6/6
- EAE Mean Maximum Clinical Score [3]: 3 ± 0

B1: IFN-γ: cytokine administered to MS patients in a pilot study (protein, UniProt P01579 24-161, looked up)
Interferon gamma: QDPYVKEAENLKKYFNAGHSDVADNGTLFLGILKNWKEESDRKIMQSQIVSFYFKLFKNFKDDQSIQKSVETIKEDMNVKFFNSNKKKRDDFEKLTNYSVTDLNVQRKAIHELIQVMAELSPAAKTGKRKRSQMLFRG
- patients with a clinical exacerbation within one month after initiation of treatment [4]: 7 of 18
- specific response to MBP (in words) [4]: increase
